The text below walks through data of patent US10925971B2, “Methods of treating PRLR positive breast cancer” (Regeneron Pharmaceuticals, Inc., priority 2016, dated 2021).

Holding throughout (assay): FACS cell surface binding
The test system of one test is HEK293 parental cells. Further details: species or system human. In a few lines:
(§1)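 Values are mean fluorescence intensity relative to an isotype control (background). Antibodies at 10 μg/ml were incubated on ice for 30 min with HEK293 lines stably overexpressing HA-tagged species PRLR or with parental cells. A PE-conjugated anti-human secondary was used for detection.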

Test [1] has as its target T1, native PRLR expressing T47D cells (Homo sapiens, UniProt P16471).
T1 construct: a native PRLR expressing cell line (T47D); endogenous in cells; host or cells: T47D
T1 sequence (P16471 25-622): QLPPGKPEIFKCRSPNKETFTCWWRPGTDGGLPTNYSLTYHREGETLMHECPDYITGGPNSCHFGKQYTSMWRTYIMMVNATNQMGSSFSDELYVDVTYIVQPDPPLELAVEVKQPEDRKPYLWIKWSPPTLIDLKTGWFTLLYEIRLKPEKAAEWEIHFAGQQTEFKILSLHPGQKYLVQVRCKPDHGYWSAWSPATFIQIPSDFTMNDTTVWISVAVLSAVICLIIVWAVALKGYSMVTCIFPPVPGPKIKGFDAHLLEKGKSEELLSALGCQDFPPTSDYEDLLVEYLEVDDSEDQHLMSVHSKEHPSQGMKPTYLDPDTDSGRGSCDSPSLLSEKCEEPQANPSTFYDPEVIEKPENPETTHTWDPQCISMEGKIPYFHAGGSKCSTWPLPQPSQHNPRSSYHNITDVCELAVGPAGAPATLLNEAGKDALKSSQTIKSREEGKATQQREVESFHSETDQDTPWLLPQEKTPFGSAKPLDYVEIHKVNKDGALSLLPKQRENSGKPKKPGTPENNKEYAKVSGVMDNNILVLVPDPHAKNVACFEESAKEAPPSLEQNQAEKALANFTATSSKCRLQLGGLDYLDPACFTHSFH
In a few lines:
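Flow cytometry on native PRLR-expressing T47D cells, alongside PRLR-overexpressing and parental HEK293 lines. Cells (1×10^5) incubated with antibody at 10 μg/ml, 30 min on ice, then PE anti-human secondary; binding reported as MFI fold over isotype control.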

Test [2] concerns the target T2, mouse PRLR on HEK293/mPRLR cells (Mus musculus, UniProt Q08501).
T2 construct: HA; expressed in transfected cells; host or cells: HEK293
T2 sequence (Q08501 20-608): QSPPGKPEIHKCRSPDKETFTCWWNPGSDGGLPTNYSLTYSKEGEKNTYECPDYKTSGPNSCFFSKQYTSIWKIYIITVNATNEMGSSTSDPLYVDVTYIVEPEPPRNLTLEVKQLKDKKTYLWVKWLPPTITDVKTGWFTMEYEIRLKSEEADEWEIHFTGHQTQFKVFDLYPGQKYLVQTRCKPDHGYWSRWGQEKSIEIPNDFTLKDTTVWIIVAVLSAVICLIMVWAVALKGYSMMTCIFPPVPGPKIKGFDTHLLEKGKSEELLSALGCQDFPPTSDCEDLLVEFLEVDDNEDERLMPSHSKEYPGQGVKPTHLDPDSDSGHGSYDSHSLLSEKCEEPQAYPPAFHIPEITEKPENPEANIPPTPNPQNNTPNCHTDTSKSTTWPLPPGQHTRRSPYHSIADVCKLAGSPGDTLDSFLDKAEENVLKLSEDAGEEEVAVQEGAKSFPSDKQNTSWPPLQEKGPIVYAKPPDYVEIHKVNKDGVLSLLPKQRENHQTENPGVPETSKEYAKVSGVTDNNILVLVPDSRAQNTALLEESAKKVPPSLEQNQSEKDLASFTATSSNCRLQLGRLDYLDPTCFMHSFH
The gist of the method: as §1

For test [3], the target named is T3, human PRLR on HEK293/hPRLR cells (Homo sapiens, UniProt P16471).
T3 construct: HA; expressed in transfected cells; host or cells: HEK293
T3 sequence (P16471 25-622): T1 sequence (P16471 25-622)
In a few lines: as §1

In test [4] the target is T4, monkey PRLR on HEK293/mfPRLR cells (Macaca fascicularis, UniProt A0A2K5WXK1).
T4 construct: HA; expressed in transfected cells; host or cells: HEK293
T4 sequence (A0A2K5WXK1 25-619): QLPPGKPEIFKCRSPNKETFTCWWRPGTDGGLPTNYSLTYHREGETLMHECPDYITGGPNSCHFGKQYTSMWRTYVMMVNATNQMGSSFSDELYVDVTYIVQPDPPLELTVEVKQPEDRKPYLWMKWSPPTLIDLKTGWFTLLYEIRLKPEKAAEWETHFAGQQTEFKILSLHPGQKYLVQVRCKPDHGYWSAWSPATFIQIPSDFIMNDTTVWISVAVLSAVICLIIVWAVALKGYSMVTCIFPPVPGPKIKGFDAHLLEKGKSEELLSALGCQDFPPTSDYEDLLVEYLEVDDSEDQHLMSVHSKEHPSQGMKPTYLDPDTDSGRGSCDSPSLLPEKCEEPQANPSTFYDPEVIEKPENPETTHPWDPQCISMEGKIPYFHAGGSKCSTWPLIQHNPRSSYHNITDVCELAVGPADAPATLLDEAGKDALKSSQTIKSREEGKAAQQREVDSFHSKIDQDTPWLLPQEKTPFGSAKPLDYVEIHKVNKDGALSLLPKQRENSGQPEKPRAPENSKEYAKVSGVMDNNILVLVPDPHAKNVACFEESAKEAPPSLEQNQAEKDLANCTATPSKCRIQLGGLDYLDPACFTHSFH
The gist of the method: as §1

B1: H1H6953N: anti-PRLR antibody, human IgG1 Fc form of H1M6953N of Table 1; HCVR/LCVR SEQ ID NOs 274/282 (antibody, V domains shown)
VH: EVQLLESGGGLVQPGGTLRLSCAASGFTFSAYAMSWVRQAPGKGLEWVSSINVRAGDTYYADSVKGRFTISRDNSKNTLFLLMNSLRAEDTAAYYCAKARYSSNWGFDFWGQGTLVTVSS
VL: DIVMTQSPDSLTVSLGARTTINCQSSQTILHSSNNHNYLAWYQQKPGLPPKLLIYWSSTRESGVPDRFSGSGSGTDFTLTISSLQAEDVAIYYCQQYSNTPYTFGQGTKLEIN
Take B1: the “FACS Cell Binding” value in the test on HEK293 parental cells came to 2 Fold Above Background; in test [1], 40 Fold Above Background; in test [2], 2 Fold Above Background; in test [3], 37 Fold Above Background; in test [4] it was 29 Fold Above Background.

B2: H1H6795P: fully human anti-PRLR antibody, human IgG1 Fc; HCVR/LCVR SEQ ID NOs 162/170 (antibody, V domains shown)
VH: QVQLVQSGAEVKKPGASVKVSCKASGYTFGTSGITWVRQAPGQGLEWMGWSSAYNGKTDYAQKFQDRVTMTTDTSTTTGYMEMRSLTSDDTAVYYCTTVVRRPFDFWGQGTLVTVSS
VL: DIQMTQSPSSLSASVGDRVTITCRASQDINNFLAWFQQKPGKAPKSLIYAASSLQSGVPSKFSGGGSGTDFALTISSLQPEDFATYYCQQYSSYPITFGQGTRLEIK
With B2, the “FACS Cell Binding” value is given as 1 Fold Above Background in the test with HEK293 parental cells; 34 Fold Above Background in test [1]; 1 Fold Above Background in test [2]; 1 Fold Above Background in test [3]; 22 Fold Above Background in test [4].

B3: H1H6782P: fully human anti-PRLR antibody, non-blocking; HCVR/LCVR SEQ ID NOs 66/74 (antibody, V domains shown)
VH: EVQLVESGGGLVQPGRSLRLSCAASGFTFDDYAMHWVRQAPGKGLEWVSGIIWNSGHIGYGDSVKGRFTISRDNAKKSLYLQMNSLRAEDTALYYCARDSGRYQSYFDYWGQGTLVTVSS
VL: DIQMTQSPSTLSASVGDRVTITCRASHIISSWLAWYQQKPGKAPKVLIFKASSLESGVPSRFSGSGSGTEFTLTISSLQPDDFATYYCQQYNTYSRTFGQGTKVEIK
For the molecule B3, the “FACS Cell Binding” value in the test with HEK293 parental cells came to 3 Fold Above Background; in test [1], 43 Fold Above Background; in test [2], 4 Fold Above Background; in test [3] it was 41 Fold Above Background; in test [4], 32 Fold Above Background.

B4: H1H6797P: fully human anti-PRLR antibody, human IgG1 Fc; HCVR/LCVR SEQ ID NOs 178/186 (antibody, V domains shown)
VH: EVQLVESGGGLVQPGGSLRLSCIVSGFTFSGSWMSWVRQLPGKGLEWVANIKEDGSDSYYVDSVEGRFTISRDNAKSSLYLQMNSLRVDDTAVYFCARARTVPLHYWGQGTLVTVSS
VL: DIQMTQSPSTLSASVGDRVTITCRASQSINIWLAWYQQKPGKAPKLLIYRASYLESGVPSSFAGGGSGTEFTLTISSLQPDDFGTYYCQHYNSYPFTFGQGTKLEIK
For B4, the “FACS Cell Binding” value stood at 1 Fold Above Background in the test with HEK293 parental cells; 38 Fold Above Background in test [1]; 2 Fold Above Background in test [2]; 1 Fold Above Background in test [3]; 25 Fold Above Background in test [4].
